Reference: article PMC9482650, “Quantitative fragmentomics allow affinity mapping of interactomes” (Nature Communications, 2022)
Blank lines part the entries; values can stand above or below the binder they belong to.

Columns and labels:
Assay in all cases: holdup assay
Design in all cases: key: below the threshold = too weak to quantify, mostly under pKd 3.1 to 4
GRIP1_2, Q9Y3R0 = target: T1, GRIP1_2, Q9Y3R0
T1 sequence (Q9Y3R0 145-248, limits assumed, looked up): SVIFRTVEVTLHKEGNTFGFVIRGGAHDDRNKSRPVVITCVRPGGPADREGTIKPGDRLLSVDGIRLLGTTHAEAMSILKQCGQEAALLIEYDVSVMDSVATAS

MAGI2_5, Q86UL8 = target: MAGI2_5, Q86UL8
MAGI2_5, Q86UL8, sequence (Q86UL8 915-1017): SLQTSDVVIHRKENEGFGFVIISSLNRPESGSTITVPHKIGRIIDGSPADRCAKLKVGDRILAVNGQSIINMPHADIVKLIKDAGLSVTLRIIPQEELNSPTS

MAGI3_2, Q5TCQ9 = target: MAGI3_2, Q5TCQ9
MAGI3_2, Q5TCQ9, sequence (Q5TCQ9 398-503): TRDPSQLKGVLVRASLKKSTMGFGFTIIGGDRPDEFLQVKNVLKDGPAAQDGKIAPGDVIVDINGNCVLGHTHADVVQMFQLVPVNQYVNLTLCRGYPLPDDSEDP

PARD3_3, Q8TEW0 = target: PARD3_3, Q8TEW0
PARD3_3, Q8TEW0, sequence (Q8TEW0 582-685): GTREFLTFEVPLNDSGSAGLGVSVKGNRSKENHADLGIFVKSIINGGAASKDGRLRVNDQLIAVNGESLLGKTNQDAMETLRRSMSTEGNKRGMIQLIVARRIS

GRASP, Q7Z6J2 = target: GRASP, Q7Z6J2
GRASP, Q7Z6J2, sequence (Q7Z6J2 96-193): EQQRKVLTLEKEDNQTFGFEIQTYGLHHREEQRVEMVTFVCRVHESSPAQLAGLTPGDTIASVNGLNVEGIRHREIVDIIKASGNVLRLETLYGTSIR

MAGI1_1, Q96QZ7 = target: MAGI1_1, Q96QZ7
MAGI1_1, Q96QZ7, sequence (Q96QZ7 1-106): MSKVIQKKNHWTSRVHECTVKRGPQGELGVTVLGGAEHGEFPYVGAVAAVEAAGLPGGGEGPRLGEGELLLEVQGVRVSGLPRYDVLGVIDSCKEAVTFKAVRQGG

DLG5_1, Q8TDM6 = target: DLG5_1, Q8TDM6
DLG5_1, Q8TDM6, sequence (Q8TDM6 617-713): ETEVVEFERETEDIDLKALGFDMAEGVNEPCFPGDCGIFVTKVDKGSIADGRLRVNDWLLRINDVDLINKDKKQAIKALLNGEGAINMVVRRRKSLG

NHERF2_2, Q15599 = target: NHERF2_2, Q15599
NHERF2_2, Q15599, sequence (Q15599 142-238): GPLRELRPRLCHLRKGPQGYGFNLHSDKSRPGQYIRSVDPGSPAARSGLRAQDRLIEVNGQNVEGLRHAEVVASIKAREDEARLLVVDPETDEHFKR

DLG2_2, Q15700 = target: DLG2_2, Q15700
DLG2_2, Q15700, sequence (Q15700 189-283): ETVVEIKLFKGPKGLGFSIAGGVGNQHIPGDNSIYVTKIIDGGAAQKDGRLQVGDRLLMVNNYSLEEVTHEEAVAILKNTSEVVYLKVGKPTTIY

TX1BP3, O14907 = target: T2, TX1BP3, O14907
T2 sequence (O14907 10-122, limits assumed, looked up): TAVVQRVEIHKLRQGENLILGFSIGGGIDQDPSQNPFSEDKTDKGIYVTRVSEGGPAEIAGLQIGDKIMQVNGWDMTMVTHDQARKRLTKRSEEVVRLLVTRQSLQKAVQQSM

GRIP2_3, Q9C0E4 = target: GRIP2_3, Q9C0E4
GRIP2_3, Q9C0E4, sequence (Q9C0E4 238-339): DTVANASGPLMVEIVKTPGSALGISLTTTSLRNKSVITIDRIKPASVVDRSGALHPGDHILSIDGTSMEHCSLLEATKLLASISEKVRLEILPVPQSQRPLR

GOPC, Q9HD26 = target: GOPC, Q9HD26
PDZRN3_1, Q9UPQ7 = target: T3, PDZRN3_1, Q9UPQ7
T3 sequence (Q9UPQ7 244-349, limits assumed, looked up): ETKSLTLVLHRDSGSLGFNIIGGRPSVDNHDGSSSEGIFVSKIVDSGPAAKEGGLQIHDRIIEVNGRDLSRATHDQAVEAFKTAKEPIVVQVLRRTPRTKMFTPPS

Inadl_3, Q8NI35 = target: Inadl_3, Q8NI35
Inadl_3, Q8NI35, sequence (Q8NI35 359-469): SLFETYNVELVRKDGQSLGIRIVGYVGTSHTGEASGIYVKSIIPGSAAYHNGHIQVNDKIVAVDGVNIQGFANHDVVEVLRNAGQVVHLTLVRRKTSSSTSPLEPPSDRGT

MPP2, Q14168 = target: T4, MPP2, Q14168
T4 sequence (Q14168 180-250, limits assumed, looked up): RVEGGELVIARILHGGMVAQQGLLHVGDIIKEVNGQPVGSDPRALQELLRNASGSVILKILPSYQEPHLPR

SNTB1, Q13884 = target: T5, SNTB1, Q13884
T5 sequence (Q13884 107-205, limits assumed, looked up): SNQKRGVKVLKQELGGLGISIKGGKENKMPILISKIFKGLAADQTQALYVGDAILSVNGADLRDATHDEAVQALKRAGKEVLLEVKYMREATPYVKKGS

LAP2, Q96RT1 = target: LAP2, Q96RT1
LAP2, Q96RT1, sequence (Q96RT1 other isoform, or with tags, fused parts or gaps): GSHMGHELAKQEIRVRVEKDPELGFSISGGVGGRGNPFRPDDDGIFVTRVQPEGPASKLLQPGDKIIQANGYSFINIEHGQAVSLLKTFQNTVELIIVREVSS

HTRA4, P83105 = target: T6, HTRA4, P83105
T6 sequence (P83105 378-476, limits assumed, looked up): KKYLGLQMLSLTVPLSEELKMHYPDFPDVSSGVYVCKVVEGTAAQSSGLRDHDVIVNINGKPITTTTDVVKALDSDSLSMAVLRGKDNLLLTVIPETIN

IL16_4, Q14005 = target: IL16_4, Q14005
IL16_4, Q14005, sequence (Q14005 1229-1329): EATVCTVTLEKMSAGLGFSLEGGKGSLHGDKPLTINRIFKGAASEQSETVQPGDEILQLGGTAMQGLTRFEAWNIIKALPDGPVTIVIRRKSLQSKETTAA

FRMPD2_2, Q68DX3 = target: FRMPD2_2, Q68DX3
FRMPD2_2, Q68DX3, sequence (Q68DX3 944-1038): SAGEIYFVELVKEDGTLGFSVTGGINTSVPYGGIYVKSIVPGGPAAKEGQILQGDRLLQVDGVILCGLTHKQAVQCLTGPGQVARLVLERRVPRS

PARD3B_1, Q8TEW8 = target: T7, PARD3B_1, Q8TEW8
T7 sequence (Q8TEW8 196-299, limits assumed, looked up): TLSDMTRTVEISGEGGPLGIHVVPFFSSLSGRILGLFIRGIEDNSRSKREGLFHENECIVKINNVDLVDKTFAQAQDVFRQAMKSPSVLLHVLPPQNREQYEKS

Inadl_4, Q8NI35 = target: Inadl_4, Q8NI35
Inadl_4, Q8NI35, sequence (Q8NI35 547-651): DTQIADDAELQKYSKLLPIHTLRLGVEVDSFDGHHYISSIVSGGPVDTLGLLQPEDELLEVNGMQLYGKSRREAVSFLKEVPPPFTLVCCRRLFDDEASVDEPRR

HTRA2, O43464 = target: HTRA2, O43464
HTRA2, O43464, sequence (O43464 355-458): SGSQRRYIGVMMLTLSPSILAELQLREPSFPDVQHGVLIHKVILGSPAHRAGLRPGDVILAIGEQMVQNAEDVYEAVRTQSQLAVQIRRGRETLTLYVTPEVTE

DFNB31_2, Q9P202 = target: T8, DFNB31_2, Q9P202
T8 sequence (Q9P202 274-371, limits assumed, looked up): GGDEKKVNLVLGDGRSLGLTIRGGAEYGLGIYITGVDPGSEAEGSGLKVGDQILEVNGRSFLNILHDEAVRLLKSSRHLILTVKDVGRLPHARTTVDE

SHANK1, Q9Y566 = target: T9, SHANK1, Q9Y566
T9 sequence (Q9Y566 658-767, limits assumed, looked up): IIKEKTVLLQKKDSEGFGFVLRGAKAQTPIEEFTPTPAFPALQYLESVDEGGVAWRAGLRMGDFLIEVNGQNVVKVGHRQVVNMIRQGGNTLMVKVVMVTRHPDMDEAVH

ARHGAP21, Q5T5U3 = target: T10, ARHGAP21, Q5T5U3
T10 sequence (Q5T5U3 45-169, limits assumed, looked up): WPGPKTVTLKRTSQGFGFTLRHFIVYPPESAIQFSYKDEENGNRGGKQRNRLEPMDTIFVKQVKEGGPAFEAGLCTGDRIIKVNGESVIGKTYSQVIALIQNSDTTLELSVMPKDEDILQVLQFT

[1] = plain residues with an end cap or a label only (N-terminal biotin on a linker: ado-ado)
[2] = plain residues with an end cap or a label only (N-terminal biotin on a linker: ahx)

- pKd (GRIP1_2, Q9Y3R0; [1]): below the threshold
- pKd (MAGI2_5, Q86UL8; [1]): below the threshold
- pKd (MAGI3_2, Q5TCQ9; [1]): 3.79
- pKd (PARD3_3, Q8TEW0; [1]): below the threshold
- pKd (GRASP, Q7Z6J2; [1]): 3.64
- pKd (MAGI1_1, Q96QZ7; [1]): below the threshold
- pKd (DLG5_1, Q8TDM6; [1]): below the threshold
- pKd (NHERF2_2, Q15599; [1]): below the threshold
- pKd (DLG2_2, Q15700; [1]): below the threshold
- pKd (TX1BP3, O14907; [1]): below the threshold
- pKd (GRIP2_3, Q9C0E4; [1]): below the threshold
- pKd (GOPC, Q9HD26; [1]): 4.89
- pKd (PDZRN3_1, Q9UPQ7; [1]): 3.53
- pKd (Inadl_3, Q8NI35; [1]): below the threshold
- pKd (MPP2, Q14168; [1]): below the threshold
- pKd (SNTB1, Q13884; [1]): 4.95
- pKd (LAP2, Q96RT1; [1]): below the threshold
- pKd (HTRA4, P83105; [1]): 3.87
- pKd (IL16_4, Q14005; [1]): 3.5
- pKd (FRMPD2_2, Q68DX3; [1]): 3.8
- pKd (PARD3B_1, Q8TEW8; [1]): 3.72
- pKd (Inadl_4, Q8NI35; [1]): below the threshold
- pKd (HTRA2, O43464; [1]): below the threshold
- pKd (DFNB31_2, Q9P202; [1]): 3.69
- pKd (SHANK1, Q9Y566; [1]): 4.5
- pKd (ARHGAP21, Q5T5U3; [1]): below the threshold
B1: KLHDC7A, Q5VTJ3 (peptide)
chain: PTPDLPQTRV

- pKd (GRIP1_2, Q9Y3R0; [2]): below the threshold
- pKd (MAGI2_5, Q86UL8; [2]): 3.59
- pKd (MAGI3_2, Q5TCQ9; [2]): 4.28
- pKd (PARD3_3, Q8TEW0; [2]): below the threshold
- pKd (GRASP, Q7Z6J2; [2]): 4.56
- pKd (MAGI1_1, Q96QZ7; [2]): below the threshold
- pKd (DLG5_1, Q8TDM6; [2]): below the threshold
- pKd (NHERF2_2, Q15599; [2]): 4.03
- pKd (DLG2_2, Q15700; [2]): 4.17
- pKd (TX1BP3, O14907; [2]): 4.17
- pKd (GRIP2_3, Q9C0E4; [2]): below the threshold
- pKd (GOPC, Q9HD26; [2]): 4.12
- pKd (PDZRN3_1, Q9UPQ7; [2]): 4.16
- pKd (Inadl_3, Q8NI35; [2]): below the threshold
- pKd (MPP2, Q14168; [2]): below the threshold
- pKd (SNTB1, Q13884; [2]): below the threshold
- pKd (LAP2, Q96RT1; [2]): below the threshold
- pKd (HTRA4, P83105; [2]): below the threshold
- pKd (IL16_4, Q14005; [2]): below the threshold
- pKd (FRMPD2_2, Q68DX3; [2]): below the threshold
- pKd (PARD3B_1, Q8TEW8; [2]): below the threshold
- pKd (Inadl_4, Q8NI35; [2]): below the threshold
- pKd (HTRA2, O43464; [2]): below the threshold
- pKd (DFNB31_2, Q9P202; [2]): below the threshold
- pKd (SHANK1, Q9Y566; [2]): 4.62
- pKd (ARHGAP21, Q5T5U3; [2]): below the threshold
B2: FRMPD1, Q5SYB0 (peptide)
chain: TQKFRASTAL

- pKd (GRIP1_2, Q9Y3R0; [1]): below the threshold
- pKd (MAGI2_5, Q86UL8; [1]): below the threshold
- pKd (MAGI3_2, Q5TCQ9; [1]): 5.16
- pKd (PARD3_3, Q8TEW0; [1]): below the threshold
- pKd (GRASP, Q7Z6J2; [1]): 4.18
- pKd (MAGI1_1, Q96QZ7; [1]): below the threshold
- pKd (DLG5_1, Q8TDM6; [1]): below the threshold
- pKd (NHERF2_2, Q15599; [1]): below the threshold
- pKd (DLG2_2, Q15700; [1]): 4.53
- pKd (TX1BP3, O14907; [1]): 4.76
- pKd (GRIP2_3, Q9C0E4; [1]): below the threshold
- pKd (GOPC, Q9HD26; [1]): below the threshold
- pKd (PDZRN3_1, Q9UPQ7; [1]): 4.23
- pKd (Inadl_3, Q8NI35; [1]): below the threshold
- pKd (MPP2, Q14168; [1]): below the threshold
- pKd (SNTB1, Q13884; [1]): 4.23
- pKd (LAP2, Q96RT1; [1]): below the threshold
- pKd (HTRA4, P83105; [1]): below the threshold
- pKd (IL16_4, Q14005; [1]): below the threshold
- pKd (FRMPD2_2, Q68DX3; [1]): 3.59
- pKd (PARD3B_1, Q8TEW8; [1]): below the threshold
- pKd (Inadl_4, Q8NI35; [1]): below the threshold
- pKd (HTRA2, O43464; [1]): below the threshold
- pKd (DFNB31_2, Q9P202; [1]): below the threshold
- pKd (SHANK1, Q9Y566; [1]): below the threshold
- pKd (ARHGAP21, Q5T5U3; [1]): 3.86
B3: CACNG2, Q9Y698 (peptide)
chain: NTANRRTTPV
